# Measured values from publication PMC8210614, “IRDye800CW labeled uPAR-targeting peptide for fluorescence-guided glioblastoma surgery: Preclinical studies in orthotopic xenografts” (Theranostics, 2021).
# Non-standard residues stand in square brackets, D forms with d. Primed or numbered codes have the meaning given here. Cha = N[C@@H](CC1CCCCC1)C(=O)O; IRDye800CW′ = not defined here; AEEA = NCCOCCOCC(=O)O
# B1: AE105 (peptide)
# chain: DAFSRYLWS
# modifications: 9-mer; residue 2 Cha (cyclohexylalanine), residue 4 D-Ser, residue 5 D-Arg; C-terminal free acid. Sequence not printed: taken from the core of the related antagonist peptide AE147 in 1YWH, with D-Arg
# Assays:
# [1] = not given; remark: listed apart in the source
# [2] = not given; remark: listed apart in the source
# [3] = not given; remark: listed apart in the source
# orthotopic PDX GBM = type: in vivo, nude mice; details: IRDye800CW-AE344 6 nmol i.v. 3 h before surgery; 5-ALA 0.25 mg/g oral 4-5 h before; NIR surgery followed 5-ALA surgery; 2 animals each
# glioma = details: cited from earlier work
# Source text: Gliolan®, the brand name of 5-ALA, was approved for clinical use for GBM resection in Europe in 2007 and by the FDA in 2017. After oral administration, it is metabolized inside the tumor cells into protoporphyrin IX that is fluorescent with an emission peak at 635 nm. […] Further, the frequency of the most common early severe adverse events (hemiparesis, aphasia, convulsions, and epidural hematoma) was 11 of 139 pati ... || GBM as a high-grade glioma is characterized by alterations of the normal brain vasculature resulting in a disrupted leaky BBB [47] manifested on MRI with tumor contrast-enhancement. However, the highly invasive nature of GBM causes single cell invasion into otherwise healthy tissue and proliferation of cells in areas outside of the disrupted BBB region, usually in areas not showing contrast-enhancement on MRI [48]. In contrast, the vasculature and BBB function in low-grade gliomas remains virtually unaltered and intact with normal function. As a consequence, the BBB in both high-grade and ...
# [4] = Biodistribution by organ fluorescence imaging; type: in vivo, nude mice; details: 3 nmol, 1 h post injection
# Procedure: Biodistribution was assessed in animals (n=2) receiving 3 nmol IRDye800CW-AE344 and was euthanized after 1 h for organ dissection and imaging (exposure time: 333 ms). Due to renal excretion, the fluorescence signals in the kidneys were out of scale compared to all the other organs.
# [5] = Ex vivo plasma stability, human plasma; type: in vitro ADME; details: 37 °C in dark, 2.4 nmol in 1,600 ul plasma, acetonitrile precipitation, HPLC fluorescence detection ex 774/em 798 nm, normalized to 0 h, read-out: intact probe (normalized AUC on HPLC)
# Procedure: (§1) For plasma stability 1,600 ul human and murine plasma were separately incubated with 2.4 nmol IRDye800CW-AE344 in 10 ul PBS at 37 °C in dark. 200 ul samples were collected at 0, 0.5, 1, 2, 3, 6, 12 and 24 h. Plasma proteins were precipitated by addition of 200 ul acetonitrile and the samples were centrifuged at 10,000 G for 10 min. The supernatant was collected for analysis. The supernatant from time zero from both the human and mouse serum was analyzed to establish the retention time of the intact IRDye800CW-AE344 on HPLC-MS on a RSLC Dionex Ultimate 3000 (Thermo) instrument coupled to a Bruker QTOF Impact HD II. The column was an Aeris widepore 3.6 µm C4 column (150 × 4.6 mm, Phenomenex) and the solvent system was solvent A: water containing 0.1% Formic acid; solvent B: acetonitrile containing 0.1% formic acid. Method: 0-1 min 5% solvent B, 1-18min 5%-50% solvent B with a flowrate of 1 mL/min. […] All samples were then run using the settings above and the AUC at the 14 min peak was used to calculate the degradation with 0 h for both murine and human plasma as the reference.
# [6] = Ex vivo plasma stability, murine plasma; type: in vitro ADME; details: mouse, 37 °C in dark, 2.4 nmol in 1,600 ul plasma, acetonitrile precipitation, HPLC fluorescence detection ex 774/em 798 nm, normalized to 0 h, read-out: intact probe (normalized AUC on HPLC)
# Procedure: as §1
# [7] = test system: 3D blood-brain barrier (BBB) spheroids; experiment: Uptake into 3D blood-brain barrier spheroids; type: in vitro ADME, human; details: 25 µM, overnight incubation 37 °C/5% CO2, confocal, slice 97 µm inside spheroid, three independent experiments; p = 0.0229
# Procedure: All cell lines were incubated at 37 °C/5% CO2.
# Blood-brain-barrier spheroid assembly and uptake assays: Blood-brain barrier (BBB) spheroids were assembled as previously described [54]. Briefly, 50 µL of 1% agarose (w/v) in Milli-Q water is added to each well of low-binding 96 well plates (Thermo Fisher Scientific) and allowed to cool prior to the addition of cells. Confluent astrocytes, pericytes and hCMEC/D3 were lifted with 0.025% trypsin and resuspended in BBB-working media (Vasculife-Mv with VEGF omitted and 2% normal human serum). 1x10^3 of each cell type is added sequentially to give a total volume of 100 µL per well. BBB-working media was added to each well to a final volume of 200 µL per well. Astrocytes were used between passage 2 and 4, pericytes between passage 4 and 6, and hCMEC/D3 between passages 29 and 30. […]
# The following day, spheroids (10 per treatment condition) were pooled by group into low-binding Eppendorf tubes (1.5 mL, Thermo Fisher Scientific) using 0.1% Triton X-100 treated pipette tips and washed 3 times with sterile PBS. […] The extent of uptake into the spheroids was determined by capturing Z-stacks of each spheroid and measuring the integrated density of a region of interest 50µm from the outer boundary of the spheroid using a slice that corresponds to 97µm inside the spheroid [54]. […]
# liver and kidneys = experiment: Acute toxicity, liver and kidney histology; type: in vivo, nude mice; details: 24 h post injection of 12 nmol, 5 animals
# Procedure: Acute toxicity was evaluated on the liver and kidneys from 5 animals 24 h post injection of 12 nmol IRDye800CW-AE344.
# Liver and kidney tissue was formalin fixed and paraffin embedded. Sections of 2-4 um thick were cut and a routine staining panel applied including: H&E, modified sirius, PAS and Masson trichome for both and additional PAS with silver for kidneys and PAS with diastase, iron, reticulin artisan and oxidized orcein for the livers. Livers were immunohistochemically stained, immunohistochemical evaluation on 3 µm thick sections was done using the CK7 antibody from Dako/Agilent, GA619 (clone OV-TL12/30) following the manufacturer's instructions. The staining took place on the Omnis from Agilent utilizing the EnVision Flex+ detection kit (GV800). The primary antibody was diluted using Antibody Diluent (Dako DM830) and were incubated for 20 min. The sections were counterstained with hematoxylin.
# uPAR-expressing tumors = details: cited from earlier work; for time of maximal TBR: previous probes
# Procedure: Compared to our previous probes, ICG-2Glu-AE105 and CH1055-4Glu-AE105, we improved several features. Importantly, the route of excretion changed from liver to kidneys leading to improved pharmacokinetics with faster excretion. Maximal TBR decreased from 15 h and 96 h of ICG-Glu-Glu-AE105 and CH1055-4Glu-AE105, respectively to 3 h with the current new probe.
# [8] = target: T1, urokinase-type Plasminogen Activator Receptor (uPAR) (UniProt Q03405 23-305); experiment: SPR; competition in solution, Biacore 3000: pro-uPA S356A immobilised on a CM5 chip (>5000 RU, mass transport limited); 2 nM uPAR incubated with a 3-fold dilution series of peptide (0.076 nM to 1.5 uM), 300 sec, 20 °C, 50 uL/min; 10 mM HEPES, 150 mM NaCl, 3 mM EDTA, 0.05% P20, pH 7.4; details: both partners purified
# [9] = target: T1, urokinase-type Plasminogen Activator …; experiment: cell-based or functional assay
# T1 sequence (Q03405 23-305): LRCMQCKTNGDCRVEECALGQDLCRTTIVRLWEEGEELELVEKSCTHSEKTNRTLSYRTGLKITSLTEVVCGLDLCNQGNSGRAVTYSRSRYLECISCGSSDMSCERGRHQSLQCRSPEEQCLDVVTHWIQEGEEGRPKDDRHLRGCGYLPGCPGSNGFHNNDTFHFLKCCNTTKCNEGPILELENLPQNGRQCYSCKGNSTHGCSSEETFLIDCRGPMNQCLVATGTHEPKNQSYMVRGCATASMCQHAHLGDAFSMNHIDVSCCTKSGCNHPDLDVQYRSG
molecule,measurement,setting,value
CC(C)C[C@H](NC(=O)[C@H](Cc1ccc(O)cc1)NC(=O)[C@@H](CCCNC(=N)N)NC(=O)[C@@H](CO)NC(=O)[C@H](Cc1ccccc1)NC(=O)[C@H](CC1CCCCC1)NC(=O)[C@H](CC(=O)O)NC(=O)COCCOCCNC(=O)COCCOCCNC(=O)[C@H](CCC(=O)O)NC(=O)[C@H](CCC(=O)O)NC(=O)CCCCC[N+]1=C(/C=C/C2=C(Oc3ccc(S(=O)(=O)O)cc3)C(=C/C=C3/N(CCCCS(=O)(=O)[O-])c4ccc(S(=O)(=O)O)cc4C3(C)C)/CCC2)C(C)(C)c2cc(S(=O)(=O)O)ccc21)C(=O)N[C@@H](Cc1c[nH]c2ccccc12)C(=O)N[C@@H](CO)C(=O)O,"absorption maximum λabs,max",,777 nm
same,"excitation peak λexcit,max",[1],784 nm
same,Stokes shift,[2],10 nm
same,"emission peak λemis,max",[3],794 nm
NCC(=O)CCC(=O)O [5-ALA],postoperative residual tumor on histology after guided surgery,orthotopic PDX GBM,clearly showed residual tumor
same,low-grade gliomas showing visible fluorescence,glioma,approximately 20%
same,frequency of the most common early severe adverse events,"glioma; hemiparesis, aphasia, convulsions, epidural hematoma, WL group 4 of 131",11 of 139
same,rate of complete resection of the tumor,"glioma; phase III clinical trial, 5-ALA vs WL surgery (36% with WL)",65%
CC(C)C[C@H](NC(=O)[C@H](Cc1ccc(O)cc1)NC(=O)[C@@H](CCCNC(=N)N)NC(=O)[C@@H](CO)NC(=O)[C@H](Cc1ccccc1)NC(=O)[C@H](CC1CCCCC1)NC(=O)[C@H](CC(=O)O)NC(=O)COCCOCCNC(=O)COCCOCCNC(=O)[C@H](CCC(=O)O)NC(=O)[C@H](CCC(=O)O)NC(=O)CCCCC[N+]1=C(/C=C/C2=C(Oc3ccc(S(=O)(=O)O)cc3)C(=C/C=C3/N(CCCCS(=O)(=O)O)c4ccc(S(=O)(=O)O)cc4C3(C)C)/CCC2)C(C)(C)c2cc(S(=O)(=O)[O-])ccc21)C(=O)N[C@@H](Cc1c[nH]c2ccccc12)C(=O)N[C@@H](CO)C(=O)O [IRDye800CW-AE344],MFI in liver,"[4]; n=2, exposure time 333 ms",88 a.u.
same,MFI in lungs,"[4]; n=2, exposure time 333 ms",101 a.u.
same,MFI in normal brain tissue,"[4]; n=2, exposure time 333 ms",19 a.u.
same,MFI in skin,"[4]; n=2, exposure time 333 ms",99 a.u.
same,MFI in kidneys,"[4]; n=2, acquired at 40 ms and extrapolated to 333 ms","1,236 a.u."
same,remaining at 6 h,[5],61%
same,"remaining at 6 h, 1.5 µM",[6]; 6 h,73%
same,"remaining at 12 h, 1.5 µM",[6]; 12 h,67%
same,fold change in relative fluorescence units (RFU) compared to untreated spheroids,[7],5.3 fold
same,kidney histology,liver and kidneys,"normal with preserved glomeruli and tubules without atrophy, inflammation, or fibrosis"
same,liver histology,liver and kidneys,"normal with lobular configuration without inflammation, fibrosis, cholestasis or deposits"
"CH1055-Glu-Glu-Glu-Glu-AE105 [CH1055-4Glu-AE105, previous uPAR probe with NIR-II fluorophore CH1055]",TBR of previous probes,uPAR-expressing tumors,2.7
same,time of maximal TBR,uPAR-expressing tumors,96 h
ICG-Glu-Glu-AE105 [previous fluorescently labeled uPAR probe with ICG],TBR of previous probes,uPAR-expressing tumors,3.5
same,time of maximal TBR,uPAR-expressing tumors,15 h
{IRDye800CW′}-EE[AEEA][AEEA]D[Cha]F[dS][dR]YLWS-OH (also: X3-X4: OEG2 linker between Glu-Glu and AE105) [IRDye800CW-AE344],IC50,[8],20 nM
same,"normalized tumor-to-background ratio (TBR), NIR imaging of cross sectioned brains with orthotopic GBM in mice, 3 nmol IRDye800CW-AE344 (active), 1 h",[9],6.6
same,"normalized tumor-to-background ratio (TBR), NIR imaging of orthotopic GBM in mice, 3 nmol IRDye800CW-AE344 blocked by co-administered AE120 (the dimer version of the AE105), 1 h",[9],4.6
B1,IC50,[8],7.8 nM
